Columns and labels:
[1] = target: Myo19-3xIQ-BioTag (human myosin-19 motor domain and IQ region with N-terminal FLAG tag and C-terminal biotin tag) (human) (UniProt Q96H55)
[2] = target: Myo19-3xIQ-BioTag (human myosin-19 motor domain and IQ region with N-terminal FLAG tag and C-terminal biotin tag) (human) (UniProt Q96H55); remark: listed apart in the source
[3] = target: Myo19-3xIQ-BioTag (human myosin-19 motor domain and IQ region with N-terminal FLAG tag and C-terminal biotin tag) (human) (UniProt Q96H55); assay: SEC-MALS; complex fixed with glutaraldehyde during 5 to 30% glycerol gradient centrifugation (GraFix; 20 mM Hepes pH 7.5, 0.2 M NaCl, 5 mM MgCl2, 1 mM EGTA, 4 °C, without calcium), then TSKgel SuperSW2000 with MALS
[4] = target: Myo19-3xIQ-BioTag (human myosin-19 motor domain and IQ region with N-terminal FLAG tag and C-terminal biotin tag) (human) (UniProt Q96H55); assay: co-sedimentation; as a4 with 1.1 mM CaCl2 added (0.1 mM free Ca2+)
[5] = target: Myo19-3xIQ-BioTag (human myosin-19 motor domain and IQ region with N-terminal FLAG tag and C-terminal biotin tag) (human) (UniProt Q96H55); remark: listed apart in the source
[6] = target: Myo19-3xIQ-BioTag (human myosin-19 motor domain and IQ region with N-terminal FLAG tag and C-terminal biotin tag) (human) (UniProt Q96H55); assay: co-sedimentation; about 2 μM Myo19-3xIQ-BioTag preparation, 4 μM F-actin, 10 μM CaM in S-Buffer (15 mM Hepes pH 7.5, 7 mM imidazole, 125 mM NaCl, 5 mM MgCl2, 1 mM EGTA, 1 mM DTT), 200,000g 20 min; pellet on SDS-PAGE, gel densitometry with BSA, RLC12B and CaM standards; no calcium
[7] = target: T1, Myo19-3xIQ-BioTag (human myosin-19 motor domain and IQ region with N-terminal FLAG tag and C-terminal biotin … (human, UniProt Q96H55 1-851, biotinylated on the BioTag during expression)); assay: SEC-MALS; complex fixed with glutaraldehyde during 5 to 30% glycerol gradient centrifugation (GraFix; 20 mM Hepes pH 7.5, 0.2 M NaCl, 5 mM MgCl2, 1 mM EGTA, 4 °C, without calcium), then TSKgel SuperSW2000 with MALS; conditions: both partners purified
T1 construct: also called HC; biotinylated Myo19; not shown: biotin tag (BioTag), C-terminal, kept

[8] = target: T1, Myo19-3xIQ-BioTag (human myosin-19 …); assay: co-sedimentation; about 2 μM Myo19-3xIQ-BioTag preparation, 4 μM F-actin, 10 μM CaM in S-Buffer (15 mM Hepes pH 7.5, 7 mM imidazole, 125 mM NaCl, 5 mM MgCl2, 1 mM EGTA, 1 mM DTT), 200,000g 20 min; pellet on SDS-PAGE, gel densitometry with BSA, RLC12B and CaM standards; no calcium; conditions: both partners purified

“RLC12B purified from E. coli (MBP removed by TEV protease) (from UniProt O14950 1-172) (natural protein)” gave an actin gliding speed of Myo19-3xIQ-BioTag (copurified with RLC12B and CaM) against added RLC12B alone, 37 °C; maximal speed at 1 μM RLC12B [1] of 150 nm/s, an actin gliding speed with 4 μM CaM fixed against increasing RLC12B; IC50 of an inhibition fit [1] of 200 nM and an actin gliding speed when 1 μM RLC12B was added in solution in the presence of CaM [2] of 250 nm/s.

Work on “Calmodulin (CaM) coexpressed with Myo19-3xIQ-BioTag in Sf9 cells and added in excess (from UniProt P0DP23 1-149) (natural protein)” yielded an actin gliding speed of Myo19-3xIQ-BioTag (copurified with RLC12B and CaM) against added CaM, 37 °C, no calcium; EC50 of a hyperbolic fit [1] of 700 nM, a stoichiometry N [3] of 2 and a CaM:RLC12B ratio bound to Myo19-3xIQ (CaM per RLC12B) [4] of 2.8. The actin gliding speed of Myo19 coexpressed with CaM alone against added CaM in the presence of 1 μM RLC12B; EC50 of a hyperbolic fit [2] was 200 nM, the actin gliding speed of Myo19 coexpressed with CaM alone against added CaM; EC50 of a hyperbolic fit [2] was 200 nM and the actin gliding speed with 0.1 mM free calcium against added CaM (0.1 to 10 μM CaM–Ca2+); highest speed at 4 μM [5] was 210 nm/s. It also gave a CaM to RLC12B ratio bound to Myo19-3xIQ (CaM per RLC12B) [6] of 1.9 and a stoichiometry N [6] of 3.4.

B1: RLC12B coexpressed with Myo19-3xIQ-BioTag in Sf9 cells (natural protein, human, UniProt O14950 1-172, looked up)
chain: MSSKKAKTKTTKKRPQRATSNVFAMFDQSQIQEFKEAFNMIDQNRDGFIDKEDLHDMLASLGKNPTDAYLDAMMNEAPGPINFTMFLTMFGEKLNGTDPEDVIRNAFACFDEEATGTIQEDYLRELLTTMGDRFTDEEVDELYREAPIDKKGNFNYIEFTRILKHGAKDKDD
notes: Myosin regulatory light chain 12B (RLC12B), O14950-1; also called MYL12B; source: Sf9-baculovirus, coexpressed and copurified with Myo19-3xIQ-BioTag
With B1 the “stoichiometry N” value [7] was 1 and the “stoichiometry N” value [8] was 1.8.
